Source: patent publication US10632208B2, “Peptide-mediated drug delivery across epithelial barrier” (Purdue Research Foundation, priority 2017, dated 2020)

Legend:
[1] = test system: NF-κB(p65); experiment: Immunoblot of NF-κB activation in Caco-2 cytoplasmic and nuclear extracts; type: cell-based, human; conditions: LAP 1000 ng/mL or TNF-α 10 ng/mL
Protocol: To extract the proteins from Caco-2 cells, cells were seeded in 6-well plates for 14-21 days. Following treatment, the cells were washed, scraped from the bottom of 6-well plates, suspended in PBS, and pelleted by centrifugation. Total protein from Caco-2 cells was extracted using the M-PER Extraction Kit (Thermo Fisher Scientific). Detergent-insoluble (membrane) and detergent-soluble (cytosolic) proteins were isolated using a Mem-Per Eukaryotic Protein Extraction Kit (Thermo Fisher Scientific) while the cytosolic and nuclear proteins were extracted using NE-PER Extraction Reagent (Thermo Fisher Scientific). To extract proteins from ileal epithelial cells, the epithelial cell fraction from ileal tissues were isolated as described above and the detergent-insoluble and the detergent-soluble proteins were isolated using a Mem-Per Eukaryotic Protein Extraction Kit.
To extract total protein from intact bacterial cells, sample solvent buffer and sonication (3 cycles of […]) were used. To isolate the cell wall-associated proteins bacterial pellets were resuspended in 0.5 ml protein extraction buffer (0.5% SDS, 10 mM Tris at pH 6.9), and incubated at 37° C. for 30 min with agitation. The samples were centrifuged (14,000×g, 10 min, 4° C.), and the supernatants (containing cell wall-associated proteins) were retained. Halt proteases and phosphatase inhibitors (Thermo Fisher Scientific) were used during all of the protein extraction procedures. The protein concentrations were determined by BCA assay (Thermo Fisher Scientific), and separated on SDS-PAGE gels (10-12.5% polyacrylamide) and electro-transferred to polyvinylidene difluoride (PVDF) membrane (Millipore). The membranes were then blocked in 5% nonfat dry milk (NFDM) in 0.1 M Tris-buffered saline, pH 7.5 (TBS) containing 0.1% Tween 20 (TBST) for at least 1 h. All of the primary antibodies were diluted in 5% bovine serum albumin (BSA) or 5% NFDM in TBST and incubated overnight. Secondary antibodies (1:2000 in 5% NFDM in TBST) incubated for 1 h at 37° C., and a chemiluminescence method was performed using LumiGLO reagent (Cell Signaling). The membranes were exposed to X-ray films or visualized using the Chemi-Doc XRS system (Bio-Rad). To immunoprobe the same membrane with another antibody, the originally bound antibodies from the membranes were removed by incubating the membranes in Restore Western Blot Stripping Buffer (Thermo Fisher Scientific) according to the manufacturer's protocol. To compare the reaction intensities, the average band densities were determined using Quantity One software (Bio-Rad). Densitometry reports represent the mean±SEM after normalization to the loading control and is presented as % change of protein with the average for untreated cells (control) set at 100%. Immunoblots and densitometric reports are representative of 2-3 independent experiments.

[2] = test system: NF-κB(p65); experiment: Confocal immunofluorescence of p65 localization in Caco-2 cells; type: cell-based, human; conditions: 30 min
Protocol: For antibody labeling in cells, Caco-2 cells, were grown to 40-50% confluence in four-chambered slides (Millipore). At the end of the treatment, the cells were fixed with 3.7% formaldehyde in PBS for 20 min and permeabilized and blocked with PBS containing 0.3% Triton X-100 and 3% BSA (Sigma-Aldrich) for 1 h at room temperature and then incubated with respective antibodies overnight at 4° C. Following antibody incubation, the cells were washed with PBS (3 cycles, 5 min) and incubated with FITC or Alexa Fluor 555-conjugated secondary antibody for 2 h at room temperature. The nuclei were stained with DAPI (500 ng/ml; Cell signaling) and slides were mounted in ProLong antifade reagent (Cell Signaling).
All images were acquired using a Nikon A1R MP Multiphoton (Nikon) Confocal fluorescence microscope using a 60× oil immersion objective equipped with the Nikon Elements software (Nikon) at the Purdue Bioscience Imaging Facility. The X-Z and Y-Z cross-sections were produced by orthogonal reconstructions from z-stack scanning at 0.15 μm intervals taken with 60× objective in 5 μm thick paraffin embedded tissue section. Three-dimensional reconstructions were performed using Nikon elements software (Nikon).

[3] = test system: NF-κB; experiment: NF-κB luciferase reporter assay in RAW 264.7 cells; type: cell-based, murine; conditions: for NF-κB activation: purified proteins, LPS positive control; for NF-κB activation by LAP domains (luciferase activity): 1 μg/mL each, 6 h
Protocol: The NF-κB Luciferase reporter RAW 264.7 cell line (Novus Biologicals), which expresses an optimized Renilla luciferase reporter gene (RenSP) under the transcriptional control of an NF-κB response element, was used. The cells were seeded (1×10^5 cells/well) into 96-well luminometer-compatible plates for 16 h and then treated with analytes for 6 h. Media from each well were aspirated, and then 100 μL of ice-cold PBS was added to each well. The plates were then frozen solid at −80° C. overnight to completely lyse the cells, thawed back to room temperature, and luciferase assays were performed using the LightSwitch Luciferase assay kit (Novus Biologicals). Luminescence was measured as the relative luminescence units (RLU) using Spectramax (Spectramax, Molecular Devices) and reported as the relative fold change compared with that of the control cells that were treated with media alone. Recombinant human or mouse TNF-α (R&D Systems) and polymyxin B, LPS (E. coli Serotype R515, Re, TLR grade), and proteinase K (each from Sigma-Aldrich) were used.

Molecule: TNF-α [reference compound]
- time of appearance of cytoplasmic phospho-IκBα (Ser32) [1]: 15 min
- time of increase in nuclear p65 and P-p65 [1]: 30 min
- localization of p65 ([2]; Caco-2 cells, LAP 1 μg/mL or TNF-α 10 ng/mL): in the nucleus
- localization of p65 ([2]; Hsp60 knocked-down Caco-2 cells): slight reduction in the nuclear translocation of p65

B1: InlB: purified recombinant InlB protein of Listeria (protein, UniProt P0DQD2 31-630, looked up)
Internalin B: AKVQAETITVPTPIKQIFSDDAFAETIKDNLKKKSVTDAVTQNELNSIDQIIANNSDIKSVQGIQYLPNVTKLFLNGNKLTDIKPLANLKNLGWLFLDENKVKDLSSLKDLKKLKSLSLEHNGISDINGLVHLPQLESLYLGNNKITDITVLSRLTKLDTLSLEDNQISDIVPLAGLTKLQNLYLSKNHISDLRALAGLKNLDVLELFSQECLNKPINHQSNLVVPNTVKNTDGSLVTPEIISDDGDYEKPNVKWHLPEFTNEVSFIFYQPVTIGKAKARFHGRVTQPLKEVYTVSYDVDGTVIKTKVEAGTRITAPKPPTKQGYVFKGWYTEKNGGHEWNFNTDYMSGNDFTLYAVFKAETTEKAVNLTRYVKYIRGNAGIYKLPREDNSLKQGTLASHRCKALTVDREARNGGKLWYRLKNIGWTKAENLSLDRYDKMEYDKGVTAYARVRNASGNSVWTKPYNTAGAKHVNKLSVYQGKNMRILREAKTPITTWYQFSIGGKVIGWVDTRALNTFYKQSMEKPTRLTRYVSANKAGESYYKVPVADNPVKRGTLAKYKNQKLIVDCQATIEGQLWYRIRTSSTFIGWTKAANLRAQK
- NF-κB activation ability after polymyxin-B treatment [3]: retained the NF-κB activation ability
- NF-κB activation after proteinase-K treatment [3]: abolished
- NF-κB activation ability after heat treatment ([3]; 100° C., 10 min): abolished the NF-κB activation ability
- NF-κB activation [3]: activated NF-κB

B2: InlA: purified recombinant InlA, Listeria surface protein Internalin A (protein)
chain: ATITQDTPINQIFTDTALAEKMKTVLGKTNVTDTVSQTDLDQVTTLQADRLGIKSIDGVEYLNNLTQINFSNNQLTDITPLKNLTKLVDILMNNNQIADITPLANLTNLTGLTLFNNQITDIDPLKNLTNLNRLELSSNTISDISALSGLTSLQQLSFGNQVTDLKPLANLTTLERLDISSNKVSDISVLAKLTNLESLIATNNQISDITPLGILTNLDELSLNGNQLKDIGTLASLTNLTDLDLANNQISNLAPLSGLTKLTELKLGANQISNISPLAGLTALTNLELNENQLEDISPISNLKNLTYLTLYFNNISDISPVSSLTKLQRLFFYNNKVSDVSSLANLTNINWLSAGHNQISDLTPLANLTRITQLGLNDQAWTNAPVNYKANVSIPNTVKNVTGALIAPATISDGGSYTEPDITWNLPSYTNEVSYTFSQPVTIGKGTTTFSGTVTQPLKAIFNVKFHVDGKETTKEVEAGNLLTEPAKPVKEGHTFVGWFDAQTGGTKWNFSTDKMPTNDINLYAQFSINSYTATFDNDGVTTSQTVDYQGLLQEPTAPTKEGYTFKGWYDAKTGGDKWDFATSKMPAKNITLYAQYSANSYTATFDVDGKSTTQAVDYQGLLKEPKAPTKAGYTFKGWYDEKTDGKKWDFATDKMPANDITLYAQFTKNPVAPPTTGGNTPPTTNNGGNTTPPSANIPGSDTSNTSTGNSASTTSTMNAYDPYNSKEASLPTT
- NF-κB activation [3]: neutral

B3: N2: LAP fragment N2 (Gly224-Gly411); histidine-tagged form SEQ ID NO: 3 (protein)
chain: GNVPAYIDKTAKIKRSVNDIILSKSFDQGMICASEQAVIVDKEVAKEVKAEMEANKCYFVKGAEFKKLESYVINPEKGTLNPDVVGKSPAWIANQAGFKVPEDTKILVAEIKGVGDKYPLSHEKLSPVLAFIEAANQAEAFDRCEEMLVYGGLGHSAVIHSTDKEVQKAFGIRMKACRIIVNAPSAQG
modifications: Listeria Adhesion Protein N2 domain
- NF-κB activation by LAP domains (luciferase activity) [3]: activated NF-κB nearly as effectively as the full-length LAP

B4: N1: LAP fragment N1 (Met1-Pro223); histidine-tagged form SEQ ID NO: 7 (protein)
chain: MAIKENAAQEVLEVQKVIDRLADNGQKALKAFESYNQEQVDNIVHAMALAGLDQHMPLAKLAVEETGRGLYEDKCIKNIFATEYIWNNIKNNKTVGVINEDVQTGVIEIAEPVGVVAGVTPVTNPTSTTLFKAIIAIKTRNPIIFAFHPSAQRCSSAAAKVVYDAAIAAGAPEHCIQWVEKPSLEATKQLMNHDKVALVLATGGAGMVKSAYSTGKPALGVGP
modifications: Listeria Adhesion Protein N1 domain
- NF-κB activation by LAP domains (luciferase activity) [3]: activity similar to the untreated control cells

B5: C1: LAP fragment C1 (Gly412-Val648); histidine-tagged form SEQ ID NO: 8 (protein)
chain: GGIGDIYNGFIPSLTLGCGSYGKNSVSQNVSATNLLNVKRIADRRNNMQWFKLPPKIFFEKYSTQYLQKMEGVERVFIVTDPGMGSFKYVDVVIEHLKKRGNDVAYQVFADVEPDPSDVTVYKGAELMKDFKPDTIIALGGGSAMDAAKGMWLFYEHPEASFFGLKQKFLDIRKRTFKYPKLGGKAKFVAIPTTSGTGSEVTPFAVITDKENNIKYPLADYELTPDVAIVDAQYVTTV
modifications: Listeria Adhesion Protein C1 domain
- NF-κB activation by LAP domains (luciferase activity) [3]: activity similar to the untreated control cells

B6: C2: LAP fragment C2 (Pro649-Val866); histidine-tagged form SEQ ID NO: 9 (protein)
chain: PAHITADTGMDVLTHAIESYVSVMASDYTRGLSIRAIELVFENLRESVLTGDPDAREKMHNASALAGMAFANAFLGINHSLAHKIGPEFHIPHGRANAILMPHVIRYNALKPKKHALFPRYESFRADEDYARISRIIGFPAATTEEGVKSLVDEIIKLGKDVGIDMSLKGQNVAKKDLDAVVDTLADRAFMDQCTTANPKQPLVSELKEIYLEAYKGV
modifications: Listeria Adhesion Protein C2 domain
- NF-κB activation by LAP domains (luciferase activity) [3]: activity similar to the untreated control cells
